What follows are sequences tested on MS2 coat protein (assay: apparent KD of MS2 coat protein, switch OFF state (with FMN for OFF switches, without FMN for ON switches); designed switch direction (-1 OFF switch, 1 ON switch): -1; higher = weaker reporter binding). Settings: FMN input: 0 or 200 uM; Eterna round: R93 (includes R88 designs).
Method in brief: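 Illumina sequencing clusters were used for on-chip transcription of designed RNA switches. Titration with SNAP-549-labelled MS2 coat protein followed, in twofold steps from 0.7 or 1.5 nM to 3 µM in 100 mM Tris-HCl pH 7.5, 80 mM KCl, 4 mM MgCl2, without or with constant ligand. Apparent KD is each design's median of fits to normalised cluster binding curves.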

Sequence | apparent KD of MS2 coat protein [nM]
AAGAUCAGAGGAUAUACAUAAGGUGAUGGAGACAUCGCCAAACAUGAGGAUCACCCAUGUAGAAGGCUGAUCAA [Mat - Exclusion 2 - JL mod - D62] | 49.7
AGUCAGAGAGGAUAUACAUGGGAAAAAAAAGUAAGAUCCCUACAUGAGGAUCACCCAUGUAGAAGGCUCUGACA [Ex2 Design 139: Sub-opt 3] | 20.2
AAAGAGCAAGGAUAUACAUGAGGAUCACCCAUGUAUGGAGAUACAAAACAAAAGAUCAGUAGAAGGUGCGGAUG [Rageleor] | 26.3
GGAAAACAUGAGGAUCACCCAUGUCAGGAUAUGUGAAAAAAAAAAAAAAGAAAAGAAAACAGAAGGGACAAAAG [amethyst 6] | 23.2
AAAAAGUCAGGAUAUACAAAAGUGCGAAAGCACAAAAAGGGACAUGAGGAUCACCCAUGUAGAAGGGACAAGAA [Married to this design, 61% 4] | 124
AGCUAGUCAGGAUAUACGAAAAUGUCAGAAGCUGUGAAGGGACAUGAGGAUCACCCAUGUAGAAGGGACUAGCA [Diamond 38] | 218
AAAAAGUUAGGAUAUACAUGAGGAUCACCCAUGUGCACAUAUGGAGAAUAUGGUAGUAGUAGAAGGGACAAAAA [EX2 Malc#16] | 33.3
AAACCACAUGAGGAUCACCCAUGUAAGGAUAUGAACGAAAAUAAAUAAAAAUAAAAGUUCAGAAGGUACAAAAA [66%, Wbt, 22] | 24.3
GAAGAACAUGAGGAUCACCCAUGUCAGGAUAUGCGCAAGGGAAUAAUAACUUGCGGAAGCAGAAGGGACAAGAA [Ex 1 May 50] | 35.9
AAAAAGUGAGGAUAUACAUGAGGAUCACCCAUGUGAAGGGAAGAAAGAAAGAAAGAAAGUAGAAGGCACAAAAA [Default title] | 222
AAAGGACAAGGAUAUACAUGAGGAUCACCCAUGUAAAAAACAUAAUAAAAGAACUUAUGUAGAAGGUGUCCAAA [69%, Moding Meechl, 8] | 177
GAAAACAGAGGAUAUACGAAAUUGACACGAAAAGUGCAGGGACAUGAGGAUCACCCAUGUAGAAGGCUGAAGAA [Meechl MS2... 60% 1] | 48.2
GAAUGACUAGGAUAUACAUGAGGAUCACCCAUGUGUUAAAAUAAAUACACAAAAGAAAGUAGAAGGAGUCAAAG [Mat - Exclusion 3 - Mayanna mod - D126] | 50.3
AAAAGGGCAGGAUAUGCAUGUUGGCAAAAUUCUCAUCAAACACAUGAGGAUCACCCAUGUAGAAGGGCCAACGG [Inonenonat] | 161
AUAGGUCAAGGAUAUACAUGAGGAUCACCCAUGUAAAUAACUCCAUAAAACUCCACAAGUAGAAGGUGAAAUAA [JR_Exc003_Sub202] | 15.8
AAGAACUGAGGAUAUACUUUGGGAAAAGAAAAGAUGAUGUUACAUGAGGAUCACCCAUGUAGAAGGCAGAAGAA [Mat - Exclusion 2 - Mod - D153] | 37
GAAAAGUGAGGAUAUACAUGAGGAUCACCCAUGUGUAUAAAAAAUUACACAAAAGAAAGUAGAAGGCACUAAAG [Mat - Exclusion 3 - Mayanna mod - D113] | 26.5
GUCCUACAUGAGGAUCACCCAUGUCAGGAUAUGCACCGGUUGCUUUAGACCGGUAAAGGCAGAAGGGACGGGUG [Orzadima] | 19.8
AACAGUACAGGAUAUACAUGAGGAUCACCCAUGUGAGAAUUAAGUGGAGUACCACAAAGUAGAAGGGUACUGGA [Mat - Exclusion 3 - JL mod - D4] | 202
AAAAAGUCAGGAUAUGCGAAGGCGUCUGAUAGACGAGGCUAGCAGAAGGGACAUGAGGAUCACCCAUGUAAAAA [Mat - Exclusion 4 - Rerun - D81] | 45
AUGUAGGGAGGAUAUACAUAGAUACAGAUUCGUGUAGAACUACAUGAGGAUCACCCAUGUAGAAGGCCCUAAAA [Mat - Same state - Mayanna Mod - D124] | 43.1
AGGUAGUCAGGAUAUACAAACAUGUCAAAAGACGUGAAAAAACAUGAGGAUCACCCAUGUAGAAGGGACUACCA [Mat - Exclusion 2 - JL mod - D21] | 16.3

Sequence | apparent KD of MS2 coat protein [nM]
AAAGAUACAGGAUAUACAUGAGGAUCACCCAUGUUAGACCAAAAAUGGGAAAAAGAAAGUAGAAGGGUAUAAAA [Ex 3 May 35] | 54.5
AAGAACGCAGGAUAUAUUAAGGGACAAAGAAGGAAGAAUAAACAUGAGGAUCACCCAUGUAGAAGGGCGAAGAA [JR_Exclusion2_Sub4] | 43.5
AGCUAGUCAGGAUAUACAAAGAUGUCGAAAGACGUCAAGGGACAUGAGGAUCACCCAUGUAGAAGGGACUAGCA [Mod of Janderson's WEB Mod v.3] | 197
AAAAAGGGAGGAUAUGCAUACACAAAAAAAAAAAAAAAAAAACAUGAGGAUCACCCAUGUAGAAGGCCCAAAAA [Dora Explored 3 - Jieux - Exclusion 2] | 28.9
CUCAAGUGAGGAUAUAAAAGAAAAGAAGAGAAAGAAAAGAAUUAGAAGGCACAUGAGGAUCACCCAUGUAAGAA [EteRNA is fun!] | 25.5
CUGGAGUCAGGAUAUACGAACAUGUCGCCAGAUGUCAAGGUACAUGAGGAUCACCCAUGUAGAAGGGAGGAGAA [salish99-Ex2-33] | 84.8
AAGAAGCAAGGAUAUACAUGAGGAUCACCCAUGUAAAAGAAAGAGGGAAAAGAGAAAAGUAGAAGGUGCAAGAA [Ptolemy VI Philometor] | 54.4
AAAAAGUCAGGAUAUGCGAAGGCGUCUGAUAGACGAGGCUAGCAGAAGGGACAUGAGGAUCACCCAUGUGAAAA [Mat - Mod of Nando 64% 1] | 143
AACAGUACAGGAUAUACAUGAGGAUCACCCAUGUGAAGAUUAAGUGGAGUACCACAAAGUAGAAGGGUACUGGA [Ruby 89] | 101
CUCAAGUAAGGAUAUGGAAGAAAAGAAGAGAAAGAAAAGAACCAGAAGGUACAUGAGGAUCACCCAUGUAAGAA [EteRNA is fun!] | 24.6
AACAGUACAGGAUAUACAUGAGGAUCACCCAUGUGAGACUUAAAAGGCGUACCUAAAAGUAGAAGGGUACUGGA [JL Maslow Revisted mod 21] | 176
AACAAACAUGAGGAUCACCCAUGUGAGGAUAUACAAACAAACAAAAACAAAACAAAAAGUAGAAGGCACAACAA [JR_Exc001_Sub002] | 18.9
CGCAAGUCAGGAUAUUCGACAAGUAAAUCAGUAGAUCAGAAGAAGAAGGGACAUGAGGAUCACCCAUGUAAGUA [JR_Exc004_Sub404] | 26.3
AAGAAACAUGAGGAUCACCCAUGUAAGGAUAUCUAAAAGAAAAGAAAAGAAAGAAGAAAGAGAAGGUACAAAGG [Nebhetepre Mentuhotep II] | 81.3
AGUCGGCGAGGAUAUACAUGAGGAUCACCCAUGUGAGAGAAAAAAGUGAGAAAGAAAUGUAGAAGGCGCUGACA [JL Lego Mod 1] | 36.8
UUUAUGUGAGGAUAUACGAAUAGUAAGUAAGUAUUACAGACGUAGAAGGCACAUGAGGAUCACCCAUGUGAAUA [JR_Exc004_Sub307] | 58.8
AGUCAUACAGGAUAUACAUGAGGAUCACCCAUGUAAAUCCUAAAAAGAAAAAACUCAUGUAGAAGGGUAUGACA [EX3 223: Super Stable 23] | 39.2
AAGAAGCGAGGAUAUACAUGAGGAUCACCCAUGUAAAAGAAAGAGGGAAAAGAGAAAAGUAGAAGGCGCAAGAA [Philip III Arrhidaeus] | 123
AAAAAGGGAGGAUAUACAUGAGGAUCACCCAUGUAACAGACGAAAAAGAGUCUGAAAAGUAGAAGGCCCAAAAA [65%, Moding Exclusion3-cac2, 7] | 19.2
AAAAAGUGAGGAUAUACAUGAAAAAAAAAAAAAAAAAAAAAACAUGAGGAUCACCCAUGUAGAAGGCGCAAAAA [GC GU GC sandwich] | 43.1
AAAAAGUGAGGAUAUAGCAAAGGUCACGAAAGUGACAAAGGCUAGAAGGCACAUGAGGAUCACCCAUGUCCAAG [Mat - Exclusion 4 - Eli mod - D98] | 56.5
AGCUAGUCAGGAUAUACGAGAAUGAAAGAAGACGUGAAGGGACAUGAGGAUCACCCAUGUAGAAGGGACUAGCA [Diamond 25] | 80.3
